Paper PMC10397247

Tests used:
Assay in all cases: two-hybrid library CCNG1;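 further: natural log of median RNA to DNA barcode read ratio; higher means stronger binding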
[1] = molecular target: T1, P8mSN
T1 chain: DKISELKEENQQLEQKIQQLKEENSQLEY

[2] = molecular target: T2, P4mSN
T2 chain: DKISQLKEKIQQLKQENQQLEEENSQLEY

[3] = molecular target: T3, P6mSN
T3 chain: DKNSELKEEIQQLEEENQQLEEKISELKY

[4] = molecular target: T4, P2mSN
T4 chain: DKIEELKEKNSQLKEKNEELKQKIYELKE

[5] = molecular target: T5, P9mSN
T5 chain: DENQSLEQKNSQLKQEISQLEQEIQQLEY

[6] = molecular target: T6, P3mSN
T6 chain: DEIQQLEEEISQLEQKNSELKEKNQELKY

[7] = molecular target: T7, P1mSN
T7 chain: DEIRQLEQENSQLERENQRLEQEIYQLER

[8] = molecular target: T8, P12mSN
T8 chain: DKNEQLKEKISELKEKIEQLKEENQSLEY

[9] = molecular target: T9, P7mSN
T9 chain: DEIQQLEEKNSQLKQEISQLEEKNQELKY

[10] = molecular target: T10, P5mSN
T10 chain: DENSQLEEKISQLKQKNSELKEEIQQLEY

[11] = molecular target: T11, 4H2883-bA
T11 chain: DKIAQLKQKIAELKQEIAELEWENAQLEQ

[12] = molecular target: T12, 4H48-bA
T12 chain: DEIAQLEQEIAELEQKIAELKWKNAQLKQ

[13] = molecular target: T13, 4H2937-bA
T13 chain: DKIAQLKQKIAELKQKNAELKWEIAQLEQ

[14] = molecular target: T14, 4H342-bA
T14 chain: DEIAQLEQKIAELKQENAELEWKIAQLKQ

[15] = molecular target: T15, 4H491-bA
T15 chain: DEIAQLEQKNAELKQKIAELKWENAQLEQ

[16] = molecular target: T16, 4H2944-bA
T16 chain: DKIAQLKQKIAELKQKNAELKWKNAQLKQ

[17] = molecular target: T17, 4H2937-bH
T17 chain: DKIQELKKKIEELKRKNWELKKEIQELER

[18] = molecular target: T18, 4H2883-bH
T18 chain: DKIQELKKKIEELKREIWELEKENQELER

[19] = molecular target: T19, 4H342-bH
T19 chain: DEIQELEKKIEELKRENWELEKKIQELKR

[20] = molecular target: T20, 4H2944-bH
T20 chain: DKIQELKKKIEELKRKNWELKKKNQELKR

[21] = molecular target: T21, 4H491-bH
T21 chain: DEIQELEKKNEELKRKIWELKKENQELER

[22] = molecular target: T22, 4H48-bH
T22 chain: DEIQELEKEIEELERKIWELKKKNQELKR

## DKNEQLKEKISELKEKIEQLKEENQSLEY [P12mSN]
[1]
  interaction score: -2.51
[2]
  interaction score: -1.35
[3]
  interaction score: -1.04
[4]
  interaction score: -1.65
[5]
  interaction score: -2.15
[6]
  interaction score: -1.72
[7]
  interaction score: -1.32
[8]
  interaction score: -0.695
[9]
  interaction score: -0.807
[10]
  interaction score: -1.2

## DKIAQLKQKIAELKQEIAELEWENAQLEQ [4H2883-bA]
[11]
  interaction score: 0.521
[12]
  interaction score: 1.3
[13]
  interaction score: 0.793
[14]
  interaction score: -0.134
[15]
  interaction score: -0.886
[16]
  interaction score: 1.15

## DKIQELKKKIEELKREIWELEKENQELER [4H2883-bH]
[17]
  interaction score: 0.674
[18]
  interaction score: 1.73
[19]
  interaction score: -0.175
[20]
  interaction score: 0.783
[21]
  interaction score: 0.298
[22]
  interaction score: 1.17
